Results taken from article PMC11467351.

Molecular target: ButCD complex of B. fragilis GS077 (B. fragilis GS077 (endogenous))
Test: cryo-EM structure

ButCD complex of B. fragilis GS077 showed a stoichiometry N of 2.
